Columns and labels:
AMPylated sucA = molecular target: T1, AMPylated sucA (UniProt P0AFG3 1-933, multiple AMPylation sites, residues not given); assay: BLI; GST-hinT (90 nM) immobilised on anti-GST biosensors; sucA-AMP 500 to 7.81 nM, unmodified sucA at 500 nM; 10 mM Tris pH 8, 150 mM NaCl, 0.1% Triton X-100; KD from steady-state responses, one site; details: both partners purified
T1 construct: sucA, model AMPylated substrate of E. coli SelO; also called sucA-AMP; SucA-AMP; source: E. coli BL21, co-expressed with SelO V242A (pETDuet), purified (Ni-NTA)
T1 sequence (looked up): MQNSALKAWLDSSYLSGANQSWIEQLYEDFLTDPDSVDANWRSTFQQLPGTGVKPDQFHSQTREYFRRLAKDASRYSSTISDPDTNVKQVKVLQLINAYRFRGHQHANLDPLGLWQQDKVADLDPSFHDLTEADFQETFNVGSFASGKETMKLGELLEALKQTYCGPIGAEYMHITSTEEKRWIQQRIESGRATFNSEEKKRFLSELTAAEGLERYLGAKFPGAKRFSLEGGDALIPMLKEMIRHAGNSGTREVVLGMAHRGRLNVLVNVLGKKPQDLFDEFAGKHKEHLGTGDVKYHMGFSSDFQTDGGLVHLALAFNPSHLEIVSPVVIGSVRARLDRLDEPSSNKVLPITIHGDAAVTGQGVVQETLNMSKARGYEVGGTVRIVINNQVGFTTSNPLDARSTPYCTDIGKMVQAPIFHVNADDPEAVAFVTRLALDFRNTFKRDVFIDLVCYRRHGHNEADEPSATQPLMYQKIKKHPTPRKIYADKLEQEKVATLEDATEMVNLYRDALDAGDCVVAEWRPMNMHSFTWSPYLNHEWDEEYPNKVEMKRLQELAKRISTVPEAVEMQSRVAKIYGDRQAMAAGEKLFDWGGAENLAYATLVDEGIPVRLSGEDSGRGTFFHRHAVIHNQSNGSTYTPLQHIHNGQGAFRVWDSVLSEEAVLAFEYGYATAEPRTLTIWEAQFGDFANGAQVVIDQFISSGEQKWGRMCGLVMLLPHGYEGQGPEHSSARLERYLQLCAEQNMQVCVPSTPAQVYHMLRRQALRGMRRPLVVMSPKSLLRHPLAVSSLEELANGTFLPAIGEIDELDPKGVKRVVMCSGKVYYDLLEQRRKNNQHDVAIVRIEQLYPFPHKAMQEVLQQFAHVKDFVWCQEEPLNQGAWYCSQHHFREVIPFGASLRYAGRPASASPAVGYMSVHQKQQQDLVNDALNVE

[1] = molecular target: T2, AMPylated GlnA (glutamine synthetase), recombinant (E. coli, UniProt P0A9C5 1-469, AMPylated tyrosine at 398 (Tyr398-AMP)); assay: far-Western, overlay or dot blot; dot blot: 400 ng to 25 ng of AMPylated or non-AMPylated protein spotted on nitrocellulose, probed with GST or GST-hinT at 0.125 μg/mL in TBST for 1 h, detected with α-GST; details: both partners purified
T2 construct: glutamine synthetase GlnA, cloned in ppSumo; Species is stated for GlnA in general (E. coli), not for the ppSumo construct; also called GlnA-AMP; copies: 12
T2 sequence: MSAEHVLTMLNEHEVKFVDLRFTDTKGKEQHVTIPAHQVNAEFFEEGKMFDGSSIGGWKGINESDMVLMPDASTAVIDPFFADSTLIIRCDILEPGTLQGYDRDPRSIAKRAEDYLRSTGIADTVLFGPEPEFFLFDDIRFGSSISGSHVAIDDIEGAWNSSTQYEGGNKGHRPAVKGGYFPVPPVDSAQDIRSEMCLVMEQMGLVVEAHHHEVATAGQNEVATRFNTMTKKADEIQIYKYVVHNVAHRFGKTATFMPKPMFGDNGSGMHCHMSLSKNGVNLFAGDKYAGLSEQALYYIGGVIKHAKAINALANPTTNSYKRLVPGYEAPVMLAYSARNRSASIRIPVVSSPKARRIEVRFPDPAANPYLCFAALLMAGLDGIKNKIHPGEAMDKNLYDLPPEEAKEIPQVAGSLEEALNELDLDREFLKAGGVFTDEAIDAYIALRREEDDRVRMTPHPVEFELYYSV

[2] = molecular target: the molecule itself; assay: cryo-EM structure; GlnA (4.68 mg/ml) mixed with hinT (3.29 mg/ml), 1:3 molar ratio of monomers; 10 mM Tris pH 8, 150 mM NaCl, 2 mM DTT

B1: GST-tagged E. coli hinT H101N E96S (enzyme, UniProt P0ACE7 1-119, looked up)
chain: MAEETIFSKIIRREIPSDIVYQDDLVTAFRDISPQAPTHILIIPNILIPTVNDVSAEHEQALGRMITVAAKIAEQEGIAEDGYRLIMNTNRHGGQSVYHINMHLLGGRPLGPMLAHKGL
notes: E. coli hinT in pGEX-rTEV, E96S made by site directed mutagenesis on the H101N form; also called GST-Ec hinT^(HN, E96S); GST-Ec hinT^E96S; not shown: GST, N-terminal, kept
What does the source list for B1?
Kd (AMPylated sucA): 21 nM; binding result [1]: binds

B2: E. coli hinT H101N (untagged) (enzyme, UniProt P0ACE7 1-119, looked up)
chain: MAEETIFSKIIRREIPSDIVYQDDLVTAFRDISPQAPTHILIIPNILIPTVNDVSAEHEQALGRMITVAAKIAEQEGIAEDGYRLIMNTNRHGGQEVYHINMHLLGGRPLGPMLAHKGL
notes: open reading frame cloned into pProEx; ATG replaces the endogenous TTG start codon; also called hinT^HN; source: E. coli BL21, purified (Ni-NTA, TEV cleavage, Superdex 75)
For B2, which “stoichiometry N” value [2] is on record?
Its value is 2.

Source: article PMC12375108, “A repurposed AMP binding domain reveals mitochondrial protein AMPylation as a regulator of cellular metabolism” (Nature Communications, 2025)
